Measurements reported in article PMC13379383.

Target: thrombin (human, UniProt P00734;P00734 328-363;364-622)
Test: AuNP aggregation (plasmonic scattering); 16 nM thrombin, 4.59 uM TBA, 0.1 M NaCl, pH 7.4; LoD 0.5 nM (not a Kd)

Binder: AGTCCGTGGTAGGGCAGGTTGGGGTGACT (ssDNA, 5'-amine C6 linker) [TBA (thrombin-binding aptamer)]
- binding result: binds
